B1: KLHDC10 (parent)
chain: CPIIRIPNRFLRGHRPPPARSGHR
B2: ESRRA (parent)
chain: SLPLQDELAFAEDLVLDEEGARAA

Variants of: B1
Experiment: protein stability index of a GFP-peptide fusion (GPS, HEK-293T) (PSI 1-6); higher = more stable
Conditions: c terminus: a fixed tail appended
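Further: lentivirally expressed fusions sorted by FACS into six bins by GFP to DsRed ratio, PSI derived from sequencing read proportions per bin multiplied by bin number.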

Variant | protein stability index
P7C | 1.89
P7D | 2.91
P7A | 2.38
P2S | 1.31
P2G | 2.41
P2D | 2.32
P2I | 2.6
P2A | 3.75
R5M | 1.6
R5T | 3.81
R5N | 4.4
R5W | 2.73
R5G | 3.42
R5L | 1.55
R5D | 4.21
R5H | 3.85
R5P | 3.89
R5K | 3.59
R5Q | 3.54
R5F | 2.62
R5I | 2.81
R5V | 2.6
R5Y | 2.51
R5A | 3.57

Variant | protein stability index
R5E | 5.03
I3F | 1.47
I3C | 1.78
I3E | 3.25
I3P | 4.2
I3S | 2.56
I3H | 2.16
I3D | 2.16
I3K | 2.81
I3L | 2.15
I3N | 3.74
I3R | 2.62
I3T | 2.36
I3M | 2.09
I3A | 1.56
I3Y | 1.6
I3V | 1.71
I4L | 2.4
I4G | 3.77
I4N | 4.38
I4S | 3.22
I4D | 4.49
I4W | 3.12
I4T | 3.23

Variant | protein stability index
I4V | 2.42
I4Y | 3.02
I4K | 3.06
I4C | 2.31
I4F | 2.46
I4M | 1.86
I4E | 4.56
I4R | 4.37
I4Q | 3.94
I4A | 2.7
I4P | 4.21
I6V | 2.77
I6E | 3.98
I6W | 4.13
I6S | 2.04
I6N | 4.01
I6R | 3.69
I6K | 3.37
I6H | 4.75
I6F | 4.26
I6A | 3.29
I6Q | 2.77
I6L | 4.07
I6C | 2.4

Variant | protein stability index
I6G | 3.96
I6M | 2.64
I6P | 4.35
I6Y | 4.09
I6D | 4.25
C1T | 3.29
C1M | 3.21
C1W | 1.59
C1R | 3.57
C1D | 2.89
C1F | 2.15
C1E | 3.76
C1L | 2.68
C1S | 3.41
C1P | 3.87
C1H | 2.91
C1N | 3.73
C1A | 4.28
C1Q | 4.42
C1K | 3.56
C1I | 3.59
C1Y | 1.97

Variants of: B2
Experiment: as above
Conditions: c terminus: a fixed tail appended

Variant | protein stability index
A9D | 5.39
A9E | 4.7
A9V | 4.88
A9M | 3.2
A9R | 3.38
A9N | 3.88
Q5E | 5.48
L4N | 5.36
E12I | 3.8
E12C | 5.04
E12N | 5.53
E12G | 4.91
A11Y | 4.66
A11E | 5.54
A11Q | 5.56
R22Q | 3.45
R22V | 3.69
R22M | 3.42
D6E | 2.67
D6G | 3.37
D6C | 2.42
D6F | 2.73
D13H | 2.98
G20T | 4.05
G20C | 2.6

Variant | protein stability index
G20K | 3.4
L8K | 5.45
E7L | 3.66
E7W | 4.16
E7Q | 3.56
E7C | 3.5
E7S | 3.29
E7H | 3.94
E7Y | 3.88
A24P | 3.21
A24E | 3.5
A24N | 2.28
E18T | 2.79
A21G | 2.77
A21Y | 2.63
A21E | 3.38
A21I | 2.87
L2H | 2.78
L2C | 2.32
L2R | 2.55
L14M | 3.29
L14S | 4.7
L16R | 3.55
L16G | 4.85
L16E | 5.2

Variant | protein stability index
V15L | 3.92
V15C | 4.28
V15W | 4.85
E19S | 2.79
E19T | 2.71
S1G | 2.81
S1V | 2.89
S1T | 3.01
S1N | 2.81
A23Q | 3.19
A23P | 3.35
A23Y | 2.62
D17A | 2.89
D17P | 4.71
D17F | 2.93
D17S | 2.69
F10G | 4.26
F10H | 3.44
F10V | 3.69
P3Q | 4.21
P3I | 3.93
P3E | 4.97
P3K | 5.08
